Among the data in PMC3759041 are fraction of the total Rac1 pool bound by Hace1 values, retold here.

A value given as a limit tells only on which side of the number the result lay.

The assay has as its target GFP-Hace1 (HECT domain and Ankyrin repeat Containing E3 ubiquitin-protein ligase 1) (UniProt Q8IYU2).
Sequence of UniProt Q8IYU2 (Q8IYU2 whole entry, the tested form may be a part): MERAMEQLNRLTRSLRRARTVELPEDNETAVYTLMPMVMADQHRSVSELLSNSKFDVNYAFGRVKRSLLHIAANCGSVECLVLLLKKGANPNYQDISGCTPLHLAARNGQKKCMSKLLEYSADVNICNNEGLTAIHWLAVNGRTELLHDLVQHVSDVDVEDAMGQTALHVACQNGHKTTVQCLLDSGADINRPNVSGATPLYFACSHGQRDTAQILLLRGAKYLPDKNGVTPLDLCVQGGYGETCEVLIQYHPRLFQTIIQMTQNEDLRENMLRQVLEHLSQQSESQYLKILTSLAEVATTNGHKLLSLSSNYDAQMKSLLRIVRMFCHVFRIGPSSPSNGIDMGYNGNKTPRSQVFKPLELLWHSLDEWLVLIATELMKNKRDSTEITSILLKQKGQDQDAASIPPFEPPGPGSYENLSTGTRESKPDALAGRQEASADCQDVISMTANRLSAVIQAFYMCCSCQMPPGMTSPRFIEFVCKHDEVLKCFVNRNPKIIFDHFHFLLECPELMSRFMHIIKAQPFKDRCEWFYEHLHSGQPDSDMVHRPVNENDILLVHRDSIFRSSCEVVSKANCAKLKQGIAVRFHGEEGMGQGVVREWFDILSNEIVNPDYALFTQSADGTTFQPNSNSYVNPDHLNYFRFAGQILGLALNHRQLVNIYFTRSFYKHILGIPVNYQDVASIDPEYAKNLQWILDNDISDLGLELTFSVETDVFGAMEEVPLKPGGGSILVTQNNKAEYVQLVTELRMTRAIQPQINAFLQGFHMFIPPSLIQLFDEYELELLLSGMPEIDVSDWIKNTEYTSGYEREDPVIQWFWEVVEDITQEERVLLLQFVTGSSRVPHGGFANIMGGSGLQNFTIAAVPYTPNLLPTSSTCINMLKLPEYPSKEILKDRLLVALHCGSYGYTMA

With “Rac1 (from UniProt P63000 1-192) (natural protein; other documents disagree on this pair)”, the fraction of the total Rac1 pool bound by Hace1 is < 10%.
